Source: the DeepSol protein solubility set

Assay: soluble on expression in E. coli; label from the status in PepcDB or PDB records

Sequence | soluble on expression in E. coli
MAVKDNYCVIMGGGIGSRFWPFSRESHPKQFLDFFGTGRSLLQMTYDRFARFIPRENILVVTNELYVDKVREQLPEIEPDQILREPTRRNTAPCIAYASYHIYARNPKANIIVAPSDHLILREDEFVRAASEALEFVADHEHLVTLGIRPSRPETGYGYIQMAEEKTGDFIRVKTFTEKPNAEMASIFLASGEFLWNSGMFVWNVESILAAFRKHLPEVTSSLENGLAHFNTPEERRFIDQAFPYCPSISIDFGVMEKADNVLVMPVDFGWADLGTWGSLYELAQKDDAGNASLKTRTLFYEAERNIVTTDNPQKLVVVQGINDCIVAESGNVLLICRAEEEQRIKHFVADAALKYDKEYN | soluble
MGHHHHHHSHMENKGVVALYHYFYGPALIPYFSHTHNPQRSPDFSERQRRREITLTVDGFVPPSSTEDLGDGFYSYAWTNQQVINPGEYLVCHLEGRDINVINGGFTPRDTAPLYAVQAFQDEETNGSLSFIILCKPKEPYRFI | not soluble
MKFTFEVPAPLQQVAPISYYESLLSNYRYRDISFLEMSTTGKILGECTIGENNYTIQGSECDGLISSIEILDVKEADSFLDIPLSLPNRKFVKALKDLGIEFDHDRDGVTIHHENRVIALSYQFGKVAAICWDSE | not soluble
MVCGKKRVGEELRCKSCGSPFEIRTGFHYRENIEDNFPYIKNMISLGESETPIFHGDDFDLKLDYMLPTFSYKDRGSRILISHIADIRDSYGITRISEDSSGNAGASIAAYGSAAGLAVDIYVPETVAGRKFSQIQAYGANVIKVKGSREDVQSAAERSESFYASHVLRPEFRDGIRTLAYEIYRQYDRMPRNIYIPVSAGTLLLGLYSGLRHLMESGEIAEMPAIVAVQTEAVSPLCAKINGLNYDPDNKLSSIADALVSRKPVLLQKMYQVISEYGRCMTVSDDEIIEARNRLAKKGFLVEYSSATVYAAFRKKPQENSLLVLTGSGLKNDS | not soluble
MAHHHHHHMENIENIENIEKIHLTDDGGVIKTILRKGNEGEENVPKKGNEVTVHYIGKLESDGSIFDSSRQRDVPFKFHLGNGEVIKGWDICVASMKKNEKCLVRLDSKYGYGKEGCGETIPGNSVLIFEIELLSFKEAKKNIYDYTDEEKIQAAFELKDEGNEFFKKNEINEAIAKYKEALDYFMHTDEWEDELLEKKKNIQIICNLNLSTCYNKNKDYPNAIEHASKVLKLDKNNVKGLYKLGVANMNFGFLEEAKINLYKAASLNPKNLDIRNSYELCIAKLKEARKKDQITFG | soluble
MSKLELLPAVDVRDGQAVRLVHGESGTETSYGSPLEAALAWQRSGAEWLHLVDLDAAFGTGDNRALIAEVAQAMDIKVELSGGIRDDDTLAAALATGCTRVNLGTAALETPEWVAKVIAEHGDKIAVGLDVRGTTLRGRGWTRDGGDLYETLDRLNKEGCARYVVTDIAKDGTLQGPNLELLKNVCAATDRPVVASGGVSSLDDLRAIAGLVPAGVEGAIVGKALYAKAFTLEEALEATSLEPG | soluble
MGSDKIHHHHHHMSVSPEFTRGKIHDVVVKPLGKFLDERGWLAELFRSDETDPATMPVMAYVSMTRPGIVRGPHEHVDQTDWFCFIGPSNFKVYLWDSRPDSPTHGVKQTLFAGIDAPMSVIVPPGVVHAYKNVGGVDGIVFNAPNRLYAGEGKSSPVDEIRHEDVAGSPFILD | not soluble
MTRVAINGFGRIGRMVFRQAIKESAFEIVAINASYPSETLAHLIKYDTVHGKFDGTVEAFEDHLLVDGKMIRLLNNRDPKELPWTDLGVEVVIEATGKFNSKEKAILHVEAGAKKVILTAPGKNEDVTIVVGVNEDQLDITKHTVISNASCTTNCLAPVVKVLDEQFGIENGLMTTVHAYTNDQKNIDNPHKDLRRARACGQSIIPTTTGAAKALAKVLPHLNGKLHGMALRVPTPNVSLVDLVVDVKRDVTVEAINDAFKTVANGALKGIVEFSEEPLVSIDFNTNTHSAIIDGLSTMVMGDRKVKVLAWYDNEWGYSRRVVDLVTLVVDELAKQENVQHI | soluble
MGSDKIHHHHHHDTDKGLARRLPPPVPKDQKNDTDVDIKKRNLLVVLINSNNQILCGDQFVDIKQLKERIKEFIDNPYNDEHKPERVEADVPFFGKMMVTKNHVISLQNDRGTEYQAYIDVQNEIAAAYNELRNKVSKEKFGKNFADLDEEQQKAVQQIYPQKISEAEPKNYGGKK | not soluble
